From patent US20160152995A1, “METHODS AND COMPOSITIONS TO IMPROVE THE SPREAD OF CHEMICAL SIGNALS IN PLANTS” (PIONEER HI-BRED INTERNATIONAL, INC., priority 2013, published 2016)

Test system: E. coli assay strain Km3
Format: cell-based
Conditions: library L8 hits, M9 Xgal colony assay; for IND = induction with 200 ppb Cs at 24 hrs (blue colony color intensity thru ImageJ analysis): 200 ppb Chlorsulfuron; for F. IND = fold induction: induction with 200 ppb Cs at 24 hrs/repression at 48 hrs: ratio IND (200 ppb Cs, 24 hrs) / REP (48 hrs)
Experimental: Library L6 was assembled, rescued, ligated into pVER7314, transformed into E. coli KM3 and plated out onto LB carbenicillin/kanamycin, and carbenicillin only control media as before. Library plates were then picked into 42 384-well microtiter plates (˜16,000 clones) containing 60 μl LB carbenicillin (Cb) broth per well. After overnight growth at 37° C. the cultures were stamped onto M9 assay plates containing no inducer, 0.2 ppm, and 2.0 ppm chlorsulfuron as test inducer. Following incubation at 30° C. for ˜48 hrs, putative hits responding to chlorsulfuron treatment as determined by increased blue colony color were re-arrayed into six 96-well microtiter plates and used to stamp a fresh set of M9 assay plates to confirm the above results. For a more detailed analysis of the relative induction by chlorsulfuron, digital photographs were taken of the plates after various time points of incubation at 30° C. and colony color intensity measured using the digital image analysis freeware program ImageJ (Rasband, US National Institutes of Health, Bethesda, Md., USA, rsb.info.nih.gov/ij/, 1997-2007). […] From this analysis sequence-activity relationships were derived. […] Briefly, C at position 100, and Q at positions 108 and 109 strongly correlated with activation, while R at position 138, L at position 170, and A or G at position 173 were highly preferred in clones with the lowest background activity. […] This information will aid in the design of further libraries to improve responsiveness to chlorsulfuron.
Library L8 construction and screening. Fourth round shuffling incorporated the best diversity from Rd3 shuffling (BB1860) as well as computational diversity (Table 14). As diversity was very high the library oligo mix was spiked into the parental hit variant oligo mix (5, 10, and 25% mixes) to titer down the number of residue changes per clone. In addition, to varying residues for Cs activity, seven residues (C68, C86, C88, C121, C144, C195, and C203) were varied with TetR family phylogenetic substitutions in an attempt to reduce the number of cysteine residues in the repressor. The PCR assembled libraries were cloned Sac1/Asc1 into pVER7334. This plasmid encodes PBAD promoter controlled expression of a plant optimized TetR DNA binding domain fused to the wt ligand binding domain of TetR(B) encoded by native Tn10 sequence on a Sac1 to Asc1 fragment. Approximately 15,000 clones were screened for blue colony color on the M9 Xgal assay plates +/−200 ppb Chlorsulfuron (Cs). Clones were ranked by ratio of color with inducer after 24 hrs incubation over colony color without inducer for 48 hrs of incubation. The sequence trend in the overall larger population of hits (first re-array) was that L55, R104, W105 and L170 were maintained while the C144A substitution was highly preferred. Sequence trends within the hit population were then noted with respect to repression, induction and fold induction (which corrects for leakiness).
Mutagenesis reactions were transformed into library strain Km3 and 96 colonies tested for substitution by DNA sequence analysis. Substitutions representing each possible residue at each position were then re-arrayed in triplicate onto M9 X-gal assay plates with 0, 20 and 200 ppb Chlorsulfuron. Plates were incubated at 37° C. for 24 and 48 hrs prior to imaging. Residue substitutions were then ranked by activation (emphasis on 20 ppb Cs) and repression characteristics (emphasis on 48 hr time point). The mutation with the greatest impact on activity was substitution of residue N82 to phenylalanine or tyrosine. […] All other preferred substitutions shown in Table 18 either improved repression or improved sensitivity to inducer without compromising repressor function. Certain residues were indispensible to function such as R104, W105, and W174 as substitutions were not allowed. Other residue positions such as R138 and K177 were also flagged as critical since functional substitutions were extremely limited. […]

Molecule	IND = induction with 200 ppb Cs at 24 hrs (blue colony color intensity thru ImageJ analysis)	F. IND = fold induction: induction with 200 ppb Cs at 24 hrs/repression at 48 hrs	REP = repression measured without inducer after 48 hrs (blue colony color intensity thru ImageJ analysis)
L8-3A04 (protein, Sulfonylurea responsive repressor) MARLDKSKVINSALELLNEVGIEGLTTRKLAQKLGVEQPTLYWHVKNKRALLDALAIEMMDRHQTHYSPLEGESWQDFLRNNAKSCRRALLSHRDGAKVCLGTRWTEQQYESAENMLAFLTQQGFSLENALYAVSAVRVFTLGAVLFDQESQVAKEERETPTTDSMPPLLRQAWELKDHQGAEPAFLFGLELIIRGLEKQLKRECGS	0.5	3.3	0.1
L8-3A07 (protein, Sulfonylurea responsive repressor) MARLDKSKVINSALELLNEVGIEGLTTRKLAQKLGVEQPTLYWHVKNKRALLDALAIEMMDRHQTHYSPLEGESWQDFLRNNAKSMRCALLSHRDGAKVCLGTRWTEQQYESAENMLAFLTQQGFSLENALYAVSAVRVFTLGWVLFDQESQVAKEERETPTTDSMPPLLRQAWELKDHQGAEPAFLFGLELIIAGLEKQLKRESGS	0.7	2.9	0.2
L8-3A06 (protein, Sulfonylurea responsive repressor) MARLDKSKVINSALELLNEVGIEGLTTRKLAQKLGVEQPTLYWHVKNKRALLDALAIEMMDRHQTHYLPLEGESWQDFLRNNAKSCRNALLSHRDGAKVCLGTRWTEQQYESAENMLAFLTQQGFSLENALYAVSAVRVFTLGAVLFDQESQVAKEERETPTTDSMPPLLRQAWELKDHQGAEPAFLFGLELIISGLEKQLKRESGS	0.3	2.6	0.1
L8-1A06 (protein, Sulfonylurea responsive repressor) MARLDKSKVINSALELLNEVGIEGLTTRKLAQKLGVEQPTLYWHVKNKRALLDALAIEMMDRHQTHYSPLEGESWQDFLRNNAKSCRRAVLSHRDGAKVCLGTRWTEQQYESAENMLAFLTQQGFSLENALYAVSAVRVFTLGAVLFDQESQVAKEERETPTTDSMPPLLRQAWELKDHQGAEPAFLFGLELIIAGLEKQLKRESGS	2.1	2.7	0.8
L8-2H01 (protein, Sulfonylurea responsive repressor) MARLDKSKVINSALELLNEVGIEGLTTRKLAQKLGVEQPTLYWHVKNKRALLDALAIEMMDRHQTHYSPLEGESWQDFLRNNAKSCRRALLSHRDGAKVCLGTRWTEQQYESAENMLAFLTQQGFSLENALYALEAVRVFTLGAVLFDQESQVAKEERETPTTDSMPPLLRQAWELKDHQGAEPAFLFGLELIIRGLEKQLKRESGS	12.9	2.7	4.8
L8-1A05 (protein, Sulfonylurea responsive repressor) MARLDKSKVINSALELLNEVGIEGLTTRKLAQKLGVEQPTLYWHVKNKRALLDALAIEMMDRHQTHYSPLEGESWQDFLRNNAKSCRRALLSHRDGAKVCLGTRWTEQQYESAENMLAFLTQQGFSLENALYAVDAVRVFTLGAVLFDQESQVAKEERETPTTDSMPPLLRQAWELKDHQGAEPAFLFGLELIIAGLEKQLKAESGS	10.8	2.5	4.4
L8-3B03 (protein, Sulfonylurea responsive repressor) MARLDKSKVINSALELLNEVGIEGLTTRKLAQKLGVEQPTLYWHVKNKRALLDALAIEMMDRHQTHYLPLEGESWQDFLRNNAKSCRRALLSHRDGAKVCLGTRWTEQQYESAENMLAFLTQQGFSLENALYAVSAVRVFTLGAVLFDQESQVAKEERETPTTDSMPPLLRQAWELKDHQGAEPAFLFGLELIIRGLEKQLKSESGS	0.6	2.4	0.3
L8-1A03 (protein, Sulfonylurea responsive repressor) MARLDKSKVINSALELLNEVGIEGLTTRKLAQKLGVEQPTLYWHVKNKRALLDALAIEMMDRHQTHYSPLEGESWQDFLRNNAKSCRNALLSHRDGAKVCLGTRWTEQQYESAENMLAFLTQQGFSLENALYALDAVRVFTLGAVLFDQESQVAKEERETPTTDSMPPLLRQAWELKDHQGAEPAFLFGLELIIAGLEKQLKRESGS	8.6	3.1	2.8
L8-3F08 (protein, Sulfonylurea responsive repressor) MARLDKSKVINSALELLNEVGIEGLTTRKLAQKLGVEQPTLYWHVKNKRALLDALAIEMMDRHQTHYSPLEGESWQDFLRNNAKSCRNALLSHRDGAKVVLGTRWTEQQYESAENMLAFLTQQGFSLENAMYALEAARIFTLGWVLFDQESQVAKEERETPTTDSMPPLLRQAWELKDHQGAEPAFLFGLELIIRGLEKQLKSESGS	1.5	2.7	0.6
L8-1E04 (protein, Sulfonylurea responsive repressor) MARLDKSKVINSALELLNEVGIEGLTTRKLAQKLGVEQPTLYWHVKNKRALLDALAIEMMDRHQTHYLPLEGESWQDFLRNNAKSCRNALLSHRDGAKVCLGTRWTEQQYESAENMLAFLTQQGFSLENALYAVSAVRVFTLGAVLYDQESQVAKEERETPTTDSMPPLLRQAWELKDHQGAEPAFLFGLELIIRGLEKQLKAESGS	1.5	2.5	0.6
